A short description of this series: yeast display, Sf9 membrane polyspecificity reagent, FACS + sequencing; frameworks hold sequencing errors. Put shortly:
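Galactose-induced (36–48 hours) yeast carrying a synthetic nanobody display library were exposed to 10% biotinylated, detergent-solubilized Sf9 membrane reagent at 4 °C for 1 hour. FACS followed streptavidin microbead enrichment, using low and high (top ~1%) gates for expression (anti-HA) and reagent binding (streptavidin). Colony PCR, MiSeq 2 × 250 sequencing and CDR-length filtering followed. Labels for polyreactivity reflect the gate of origin.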
With “QVQLVESGGGLVQAGGSLRLSCAASGSTIGVYAMGWYRQAPGKERELVAAITSGDSTNYADSVKGRFTISRDNAKNTVYLQMYSLKPEDTAVYYCNARQLYYWYYAYDYWGQGTQVTVST”, the “polyreactivity (PSR sort gate)” value is listed as “low polyreactivity”.

With “QVQLVESGGGLVQAGGSLRLSCAASGSTIIGYTMGWYRQAPGKERELVADISNGGSTNYADSVKGRFTISRDNAKNTVYLQLNSLKPEDTAVYYCNAEAWYYWGWPFFIATYDYWGQGTQVTVSS”, the “polyreactivity (PSR sort gate)” value was “low polyreactivity”.

In the case of “QVQLVESGGGLVQAGGSLRLSCAASGSTIKPYTMGWYRPAPGKERELVAAITSGGRTYYADSVKGRFTISRDNAKNTVYLQMNSLKPEDTAVYYCNARRYLWLRRYDYWGQGTQVTVSS”, the “polyreactivity (PSR sort gate)” value is listed as “high polyreactivity”.

Turning to “QVQLVESGGGLVQAGGSLRLSCAASGSTIKYYAMGWYRQAPGKERELVAAINWSGDSTYYADSVKGRFTISRDNAKNTVYLQMNSLKPEDTAVYYCAVRYQKRAYYGSNYWGQGTQVTVSS”, the “polyreactivity (PSR sort gate)” value is recorded as “high polyreactivity”.

Turning to “QVQLVESGGGLVQAGGSLRLSCAASGSTILKYAMGWYRQAPGKERELVAAITSDGTSYADSVKGRFTISRDNAKNTVYLQMNSLKPEDTAVYYCAIDYRHPTFDYWGQGTQVTVSS”, the “polyreactivity (PSR sort gate)” value is given as “low polyreactivity”.

In the case of “QVQLVESGGGLVQAGGSLRLSCAASGSTILYYAMGWYRPAPGKERELVAAITWSGGPTYYADSVKGRFTISRDNAKMSGYLLMTSLKPEDTAVYYCNKADPWLRSTALNPGLYDYWGQGTQVTVSS”, the “polyreactivity (PSR sort gate)” value is “high polyreactivity”.

As to “QVQLVESGGGLVQAGGSLRLSCAASGSTINHYAMGWYRQAPGKERELVAAISWSGGSTRYADSVKGRFTISRDNAKNTVYLQMNSLKPEDTAVYYCAARGYGKYYYWGQGTQVTVSS”, the “polyreactivity (PSR sort gate)” value is on record as “high polyreactivity”.

“QVQLVESGGGLVQAGGSLRLSCAASGSTINQYPLGWYRQATGKERELVAAITRRGGSTYYADSVKGRFTISRDNAKNTVYLQMNSLKPEDTAVYYCAAAYPYTTVSYDYWGQGTQVTVSS”: the “polyreactivity (PSR sort gate)” value was “high polyreactivity”.

On to “QVQLVESGGGLVQAGGSLRLSCAASGSTINSYTKGWYSQAPRKERELVAAISGSSGRTYDADSVKGRFTISRDNAKNTVYLQMNSLKPEDTAVYYGAAVDLYGGSDYWGQGTQVTVSS”, for which the “polyreactivity (PSR sort gate)” value is on record as “high polyreactivity”.

As for “QVQLVESGGGLVQAGGSLRLSCAASGSTIPLYAMGWYRQAPGKERELVAAISRRGGRTYYADSVKGRFTISRDYAKNTVYLQMNSLKQEDTAVYYCATAQGSRVDYWGQGTQVTVSS”, the “polyreactivity (PSR sort gate)” value is listed as “high polyreactivity”.

For “QVQLVESGGGLVQAGGSLRLSCAASGSTIQYYTMGWYRQAPGKERELVASITSGDSTNYADSVKGRFTISRDNAKNTVYLQMNSLKPEDTAVYYCARDRVSTQLQSSPAVSELYYWGQGTQVNVSS”, the “polyreactivity (PSR sort gate)” value is reported as “low polyreactivity”.

“QVQLVESGGGLVQAGGSLRLSCAASGSTIRNYAMGWYRQAPGKERELVAAISSGGRTYYADSVKGRFTISRDNAKNTVYLQMNSLKPEDTAVYYCYTPYTVRGRYSYDYWGQGTQVTVSS”: the “polyreactivity (PSR sort gate)” value is given as “high polyreactivity”.

“QVQLVESGGGLVQAGGSLRLSCAASGSTIRQNAMGWSSQAPGKEMELVAAITYTGGSTYYADSVKGRYTISRDNAKNTVYLEMNSLKPEDTSVYYCAATYLSYYHGWVNYWGEGTQVTVSS”: the “polyreactivity (PSR sort gate)” value is “high polyreactivity”.

With “QVQLVESGGGLVQAGGSLRLSCAASGSTIRRYAMGWSRQAPGKERELVAAITRSGGSTYYADSVKGRFTISRDNAKNTVYLQMNSLKPEDTEVYYCAADTGTGLDWGQGTQVTVSS”, the “polyreactivity (PSR sort gate)” value is “high polyreactivity”.

Take “QVQLVESGGGLVQAGGSLRLSCAASGSTIRYYVKGWYRQAPGKERELVAAISYNGGSTYYADSVKGRFTISRDTAKNTVYLHMNSVTPEDTAVYYCAADAPYRSSGKDYWGQGTQVTVSS”: the “polyreactivity (PSR sort gate)” value is “high polyreactivity”.

As for “QVQLVESGGGLVQAGGSLRLSCAASGSTISVNAMGWYRQAPGKERELVAAISDRGGSTYYADSVKGRFTISRDNAKNTVYLQMNSLKPEDTAVYYCAALFLRVTYFRLGLYSYEYWGQGTQVTVSS”, the “polyreactivity (PSR sort gate)” value is given as “low polyreactivity”.

As to “QVQLVESGGGLVQAGGSLRLSCAASGSTITYNAMGWYRQAPGKERELVAAITVSDGSTYYADSVKGRFTISRDNAKNTVYLQMNSLKPEDTAVYYCNKDRGHPFKYDYWGQGTQVTVSS”, the “polyreactivity (PSR sort gate)” value is “low polyreactivity”.

“QVQLVESGGGLVQAGGSLRLSCAASGSTIVGYAMGWYRQAPGKERELVAAISRTGASTYYADSVKGRFTISRDNAKNTVYLQMISLKPEDTAVYYCAAGREYWGVTREYWGQGTQVTVSS”: the “polyreactivity (PSR sort gate)” value is “high polyreactivity”.

In the case of “QVQLVESGGGLVQAGGSLRLSCAASGSTIVQNAMGWYRQAPAKERELVAAISRTGGSTYYADSVKGRFTISRDNAKNTVYLQMNSLKPEDTAVYYCAKRPPHYSWPKLIEFGSWGQGNQVTVSS”, the “polyreactivity (PSR sort gate)” value is given as “high polyreactivity”.

For the sequence “QVQLVESGGGLVQAGGSLRLSCAASGSTIWPYTMGWYRQAPGKERELVAAITLRGGTTYYADSVKGRFTISRDNAKNTVYLQMNSLKPEDTVVYYCNATSGNPASTAWMNYWGQGTQVTVSS”, the “polyreactivity (PSR sort gate)” value is “low polyreactivity”.

In the case of “QVQLVESGGGLVQAGGSLRLSCAASGSTIWRNTMGWYRQAPGKERELVADIRNVGSTYYADSVKGLFTISRDNAKNTVYLQMNSLKPEDTAVYYCYARWRFLYDYWGQGTQVTVSS”, the “polyreactivity (PSR sort gate)” value is reported as “high polyreactivity”.

In the case of “QVQLVESGGGLVQAGGSLRLSCAASGSTIYDYTMGWYRQAPGKERELVAAISSDGSTYYADSVKGRFTISRDNAKITVYLKMNSLKPEDTAVYYCNADAGFLSLRGYDYWGQGTQVTVSS”, the “polyreactivity (PSR sort gate)” value is “low polyreactivity”.

Consider “QVQLVESGGGLVQAGGSLRLSCAASGSTIYHYTMECYRQAPGKERELVAAITYSGGRTYYADSVKGRFTISRDNAKNTVYLQMNSLKPEDTAVYYCAATYSTPGAGYYHYWGQGTQVTVSS”, for which the “polyreactivity (PSR sort gate)” value was “high polyreactivity”.

With “QVQLVESGGGLVQAGGSLRLSCAASGSTIYRYAMGWYRQAPGKERELVATISRTGARTNYADSVKGRFTISRDNAKNTVYLQMNSLKPEDTAVYYCAASAPYIYYWGQGTQVTVSS”, the “polyreactivity (PSR sort gate)” value is “high polyreactivity”.

“QVQLVESGGGLVQAGGSLRLSCAASGSTIYYNAMGWYRQAPGKERELVATITSAGRTNYADSVKGRFTISRDNAKNTVSLLMNSLKPEDTAVYYCNARYRLSRYNYWGQGTQVNVSS”: the “polyreactivity (PSR sort gate)” value was “low polyreactivity”.

“QVQLVESGGGLVQAGGSLRLSCAASGSTLAGYAMGWYRPAPGKERELVAAIDWTGGSTTYADSVKGRFTISRDNAKNTVYLQMNSLKPEDTAVYYCNVDLGVNGDYWGQGTQVTVSS”: the “polyreactivity (PSR sort gate)” value was “low polyreactivity”.

As to “QVQLVESGGGLVQAGGSLRLSCAASGSTLAIYAMGWYRQAPGKEREWVAAISRSGGTTYYADSVKGRFTISRDNAKNTVYLQMNSLKPEDTAVYYCYPYFWYPDGYTYDYWGQGTQVTVSS”, the “polyreactivity (PSR sort gate)” value is given as “high polyreactivity”.

As for “QVQLVESGGGLVQAGGSLRLSCAASGSTLAPYVMGWYRQAPGKERELVSVISTRTGRTSYADSVKGRFTLSRDNAKNTVYLQMNSLKPEDTAVYYCNAQWVSWWSLYDYWGQGTQVTVSS”, the “polyreactivity (PSR sort gate)” value is “high polyreactivity”.

With “QVQLVESGGGLVQAGGSLRLSCAASGSTLATYTMGWYRQAPGKERELVAAISFGGSTYYAYSVKGRFTISRDNAKNTVYLQMNSLKPEDTAVYYCAVYGDSYWGAYYYSDGYWGQGTQVTVSS”, the “polyreactivity (PSR sort gate)” value is “low polyreactivity”.

As to “QVQLVESGGGLVQAGGSLRLSCAASGSTLDSYTMGWYRQAPGKERELVATISTSGGSTYYADAVKGRFTISRDNAKNTVSIQMNSLKPEDTAVYYCKADAPFGPNRYNSWGQGTQVTVSS”, the “polyreactivity (PSR sort gate)” value is given as “low polyreactivity”.

Consider “QVQLVESGGGLVQAGGSLRLSCAASGSTLDTYAMGWYRQAPGKERELVAGITWSGGSTYYADSVKGRFTISRDNAKNTVYLQMNSLKPEDTAVYYCAAYSPYGPRYDYWGQGTQVTVSS”, for which the “polyreactivity (PSR sort gate)” value is “low polyreactivity”.

As to “QVQLVESGGGLVQAGGSLRLSCAASGSTLEFNARGWYRQAPGKERELVAVINRSDGSTYYAASVKGRFTISRDNAKNTVYLQMNSLKPEDTAVYYCAADRHQVSVISTEDYWGQGTQVTVSS”, the “polyreactivity (PSR sort gate)” value is “low polyreactivity”.

For the sequence “QVQLVESGGGLVQAGGSLRLSCAASGSTLEYYAMGWYRQAPGKERELVAAITYSGGDTYYADSVKGRFTISRDNAKNTVYLQMNSLKPEDTAVYYCAAEALYYPYETYDYWGQGTQVTVSS”, the “polyreactivity (PSR sort gate)” value is “high polyreactivity”.

On to “QVQLVESGGGLVQAGGSLRLSCAASGSTLFAYAMGWYRQAPGKERELVAAITSGASTNYADSVKGRFTISRDNAKNTVYLQMNSLKPEDTAVYYCAKDVSGTNPDYDYWGQGTQVTVSS”, for which the “polyreactivity (PSR sort gate)” value is reported as “low polyreactivity”.

Consider “QVQLVESGGGLVQAGGSLRLSCAASGSTLFFYTMGWYRQAPGKERELVAAITRGGSTYYADSVKGRFTISRDNAKNTVYLQLNSLKPEDTAVYYCAAPYVRPKKVYNYDYWGQGTQVTVSS”, for which the “polyreactivity (PSR sort gate)” value was “high polyreactivity”.

For the sequence “QVQLVESGGGLVQAGGSLRLSCAASGSTLGANAMGWYRQAPGKERELVAAISISDGDTYYADSVKGRFTISRDYAKNTVYLQMNSLKPEDTAVYYCAADYWFQYRWYDYWGQGTQVTVSS”, the “polyreactivity (PSR sort gate)” value is listed as “high polyreactivity”.

With “QVQLVESGGGLVQAGGSLRLSCAASGSTLGAYAMGWYRQAPGKERELVAAISRSGGNTYYADSVKGRFTISRDNAKNTVYLQMNSLKPEDTAVYYCAAVRLYRYDYWGQGTQVTVSS”, the “polyreactivity (PSR sort gate)” value is “low polyreactivity”.

As for “QVQLVESGGGLVQAGGSLRLSCAASGSTLGKYAMGWYRQAPGKERELVARITLNGGRTYYADSVKGRFTISRDNAKNTVYLQMNSLKPEDTAVYYCAKSLPHSTSRDYWGQGTQVTVSS”, the “polyreactivity (PSR sort gate)” value was “low polyreactivity”.

On to “QVQLVESGGGLVQAGGSLRLSCAASGSTLGRNAMGWYRQAPGKERELVASITRSGGSTYYADSVKGRFTISRDNAKNTVYLQMNSLKPEDTAVYYCAAEVQGQVGEFDYWGQGTQVTVSS”, for which the “polyreactivity (PSR sort gate)” value is “low polyreactivity”.

In the case of “QVQLVESGGGLVQAGGSLRLSCAASGSTLGRNAMVWYRQAPGKERELVAAITTSGGSTYYADSVKGRFTISRDNAKNTVYLQMNSLKPEDTAVYYCAARTGYRNYGYWGQGSQVTVSS”, the “polyreactivity (PSR sort gate)” value is recorded as “high polyreactivity”.

For “QVQLVESGGGLVQAGGSLRLSCAASGSTLGSNAMGWYRQAPGKERELVAAITWSGGTTYYADSVKGRFTISRDNAKNTVYLQMISLKPEDTAVYYCATGQSVIYRYEYWGQGTKVTVSS”, the “polyreactivity (PSR sort gate)” value was “low polyreactivity”.

The values are drawn from the nanobody polyreactivity screen of Harvey et al. (2022).
